# Test results published in PMC1885262, “Purification and preliminary crystallization of alanine racemase from Streptococcus pneumoniae” (BMC Microbiology, 2007).
# Tests used:
# [1] = substrate: C[C@@H](N)C(=O)O; test: alanine racemase photometric assay; assay type: biochemical, Streptococcus pneumoniae; details: 23°C, D- to L-alanine direction
# [2] = substrate: C[C@H](N)C(=O)O; test: alanine racemase photometric assay; assay type: biochemical, Streptococcus pneumoniae; details: 23°C, L- to D-alanine direction
protein,measurement,setting,value
"AlrSP (alanine racemase from S. pneumoniae) (Streptococcus pneumoniae R6) (protein, full length, 367 residues, 39854 Da, homodimer (~80 kDa by gel filtration); pET17-alrSP (NdeI/BamHI) in E. coli BL21(DE3) pLysS; no tag mentioned) MKASPHRPTKALIHLGAIRQNIQQMGAHIPQGTLKLAVVKANAYGHGAVAVAKAIQDDVDGFCVSNIDEAIELRQAGLSKPILILGVSEIEAVALAKEYDFTLTVAGLEWIQALLDKEVDLTGLTVHLKIDSGMGRIGFREASEVEQAQDLLQQHGVCVEGIFTHFATADEESDDYFNAQLERFKTILASMKEVPELVHASNSATTLWHVETIFNAVRMGDAMYGLNPSGAVLDLPYDLIPALTLESALVHVKTVPAGACMGYGATYQADSEQVIATVPIGYADGWTRDMQNFSVLVDGQACPIVGRVSMDQITIRLPKLYPLGTKVTLIGSNGDKEITATQVATYRVTINYEVVCLLSDRIPREYY",Km,[1],2100 µM
same,Km,[2],1920 µM
